Molecular target: the molecule itself
Test: SEC-MALS; SEC-MALLS of isolated CTDs; Superdex-75 Increase 10/300; 0.5 M NaCl, 25 mM Tris-HCl pH 7.5, 3 mM NaN3, 0.5 mM TCEP; 25°C; loaded at 8, 4, 2, 1 or 0.5 mg/mL; dimer to monomers

B1: isolated HIV-1 IN CTD (wild type), IN residues 220 to 270 (domain or fragment)
chain: IQNFRVYYRDSRDPVWKGPAKLLWKGEGAVVIQDNSDIKVVPRRKAKIIRD
notes: HIV-1 integrase (IN) carboxyl-terminal domain, residues 220 to 270, lacking the C-terminal tail; numbers count on: the mature integrase (IN residues); A prior drug-free HIV-1 IN CTD structure is cited as PDB 6T6E; also called carboxyl-terminal domain; source: E. coli BL21-CodonPlus (DE3), purified (Ni-NTA, HiTrap SP, SEC); not shown: His6-Sumo, N-terminal, cleaved
  stoichiometry N: 2

Reference: publication PMC9973045, “The Drug-Induced Interface That Drives HIV-1 Integrase Hypermultimerization and Loss of Function” (mBio, 2023)
